This note sets out measurements from patent US20050266009A1.

What all share (experiment): ELISA on coated peptide
The target of experiment [1] is T1, CCR5 (residues 1-18) derived peptide sulfated at 2nd tyrosine position.
T1 sequence (peptide, sulfated at 2nd tyrosine position): MDYQVSSPIYDINYYTSE

Experiment [2] deals with T2, CCR5 (residues 1-18) derived peptide, non-sulfated.
T2 sequence (peptide): MDYQVSSPIYDINYYTSE

Experiment [3] deals with T3, GPIb (residues 268-285) derived peptide sulfated at 3rd tyrosine position.
T3 sequence (peptide, sulfated at 3rd tyrosine position): GDEGDTDLYDYYPEEDTE

The target in experiment [4] is T4, PSGL-1 (residues 42-58) derived peptide sulfated at 3rd tyrosine position.
T4 sequence (peptide, sulfated at 3rd tyrosine position): QATEYEYLDYDFLPETE

The target in experiment [5] is T5, CCR5 (residues 1-18) derived peptide sulfated at 1st tyrosine position.
T5 sequence (peptide, sulfated at 1st tyrosine position): MDYQVSSPIYDINYYTSE

The target of experiment [6] is T6, GPIb (residues 268-285) derived peptide sulfated at 1st tyrosine position.
T6 sequence (peptide, sulfated at 1st tyrosine position): GDEGDTDLYDYYPEEDTE

For experiment [7], the target named is T7, CCR5 (residues 1-18) derived peptide sulfated at 3rd tyrosine position.
T7 sequence (peptide, sulfated at 3rd tyrosine position): MDYQVSSPIYDINYYTSE

The target of experiment [8] is T8, PSGL-1 (residues 42-58) derived peptide sulfated at 2nd tyrosine position.
T8 sequence (peptide, sulfated at 2nd tyrosine position): QATEYEYLDYDFLPETE

The target of experiment [9] is T9, PSGL-1 (residues 42-58) derived peptide sulfated at 1st tyrosine position.
T9 sequence (peptide, sulfated at 1st tyrosine position): QATEYEYLDYDFLPETE

Experiment [10] addresses T10, GPIb (residues 268-285) derived peptide, non-sulfated.
T10 sequence (peptide): GDEGDTDLYDYYPEEDTE

Experiment [11] concerns the target T11, PSGL-1 (residues 42-58) derived peptide, non-sulfated.
T11 sequence (peptide): QATEYEYLDYDFLPETE

Turning to N06 scFv (negative control), the ELISA reading at 450 nm in experiment [1] stood at 0.06; in experiment [2], 0.06; in [3] it was 0.07; in [4] it was 0.06; in experiment [5], 0.06; in [6], 0.07. The ELISA reading at 450 nm in experiment [7] came to 0.06; in experiment [8] it was 0.06; in experiment [9], 0.06; in experiment [10] it was 0.07; in experiment [11], 0.06.
